Assay results: patent publication US20250170267A1, “ANTIBODY-DRUG CONJUGATE PRECURSOR AND INTERMEDIATE FOR SYNTHESIS THEREOF” (UBE Corporation, priority 2022, published 2025)
Numbered stars: 1 amine (or outer) side, 2 acyl side, 3 side chain; on linkers, the order of the positions; unused ones are H or OH. Square brackets hold non-standard residues; d marks the D form. Peptide text beside a SMILES is read from it. * marks the point of attachment. βAla(2S-maleimido) = O=C1C=CC(=O)N1[C@@H](CN[*:1])C(=O)[*:2]; Dolaproine = CO[C@@H]([C@@H]1CCCN1)[C@@H](C)C(=O)O; X5 = C[C@@H](N[*:1])[C@@H](OC(=O)[*:2])c1ccccc1; Dil = CC[C@H](C)[C@H](NC)[C@@H](CC(=O)O)OC; X6 = O=C(O)C1OC(n2cc(CN*)nn2)C(O)C(O)C1O; PABC = O=C(OCc1ccc(N[*:1])cc1)[*:2]; X1 = C[C@@H](N*)[C@@H](O)c1ccccc1; hSer(lactone) = O=C1OCC[C@@H]1N*; Cit = NC(=O)NCCC[C@H](N)C(=O)O; PEG4 = NCCOCCOCCOCCOCCC(=O)O; NMeV = CN[C@H](C(=O)O)C(C)C; X2 = O=C1CC[C@@H](C(=O)*)O1

What was measured:
[1] = molecular target: T1, porcine tubulin (Sus scrofa, UniProt P02550+P02554); assay: Tubulin polymerization inhibition test; type: biochemical; conditions: porcine tubulin, 37° C., fluorescence over 60 minutes; read-out: IC50 value (tubulin polymerization inhibition)
T1 construct: purchased Cytoskeleton, Inc. BK011P
Description: For measuring the tubulin polymerization inhibitory action, Tubulin Polymerization Assay Kit (manufactured by Cytoskeleton, Inc., BK011P) was used. A PIPES buffer containing porcine tubulin, GTP, MgCl2, EGTA, Glycerol, and a fluorescent reporter was prepared under ice-cooling as a reaction solution. The reaction solution was ice-cooled until it was used. A test compound solution was prepared by an aqueous solution containing 1.5% DMSO, and added to a 96 well plate (manufactured by Corning Inc., 3686) at 5 μL/well. The reaction solution was added thereto at 50 μL/well, the plate was placed in a microplate reader (FlexStation 3, manufactured by Molecular Device, LLC) in which the internal temperature was set to 37° C. in advance, and the fluorescence intensity measurement (excitation wavelength: 360 nm, detection wavelength: 420 nm) of each well was started. The fluorescence intensity was measured once every minute, and the measurement was continued for 60 minutes.
The tubulin polymerization inhibition rate (%) was calculated by the following equation.
[formula] • a: average amount of fluorescence intensity increase in vehicle-treated well (n=2) • b: average amount of fluorescence intensity increase in test compound-treated well (n=2)
Amount of fluorescence intensity increase: (average fluorescence intensity after 51 to 60 minutes from measurement start)−(average fluorescence intensity after 1 to 6 minutes from measurement start)

[2] = tested on: human liver lysosome; assay: Metabolism test using human liver lysosomal fraction; type: in vitro ADME; conditions: 37° C., 24 hours, released drug, LC-MS/MS
Description: To a reaction composition solution (X10 Catabolic Buffer (manufactured by SEKISUI-Xenotech, LLC., K5200))(60 μL) in which human liver lysosome (manufactured by SEKISUI-Xenotech, LLC., Cat No. H610.L 2.5 mg/mL)(corresponding to 0.125 mg of protein) was suspended and distilled water (manufactured by FUJIFILM Wako Pure Chemical Corporation, for HPLC)(10 μL) was added 1.2 μM test compound (antibody-drug conjugate produced in ADC Production examples)(25 μL) dissolved in PBS to prepare a reaction solution. After the reaction solution was incubated at 37° C. for 24 hours, “an antitumor drug molecule or an analog thereof, or a derivative thereof” released from the antibody-drug conjugate into the reaction solution was quantified by LC-MS/MS (high performance liquid chromatography/mass spectrometer system) under the following conditions. LC-MS/MS analysis conditions
(§1) LC: LC20 or LC30 HPLC system manufactured by Shimadzu Corporation
(§2) Column: Phenomenex Kinetex C18 (50×2.1 mm, 2.6 μm)
(§3) Column temperature: 40° C.
(§4) Mobile phase A: 0.1% aqueous solution of formic acid, Mobile phase B: 0.1% solution of formic acid in a mixture of 50% acetonitrile/methanol
(§5) Mode: Positive or Negative
(§6) The release rate (%) of drug was calculated by the following equation.

[3] = molecular target: T2, human liver Cathepsin B (Homo sapiens, UniProt P07858); assay: Metabolism test using human liver Cathepsin B; type: in vitro ADME; conditions: 37° C., 24 hours, released drug, LC-MS/MS
T2 construct: human liver Cathepsin B (manufactured by Sigma-Aldrich Co. LLC, Cat No. C8571 25 μg/vial); purchased Sigma-Aldrich Co. LLC C8571; host or cells: human liver
Description: To human liver Cathepsin B (manufactured by Sigma-Aldrich Co. LLC, Cat No. C8571 25 μg/vial)(corresponding to 400 Unit/mL)(5 μL), X10 Catabolic Buffer (manufactured by SEKISUI-Xenotech, LLC., K5200)(10 μL), 2.5 mM Bovine Serum Albumin (manufactured by FUJIFILM Wako Pure Chemical Corporation, Cat No. 012-15093)(5 μL), and distilled water (manufactured by FUJIFILM Wako Pure Chemical Corporation, for HPLC)(55 μL) was added 1.2 μM test compound (antibody-drug conjugate prepared in ADC Production examples)(25 μL) dissolved in PBS to prepare a reaction solution. After the reaction solution was incubated at 37° C. for 24 hours, “an antitumor drug molecule or an analog thereof, or a derivative thereof” released from the antibody-drug conjugate into the reaction solution was quantified by LC-MS/MS (high performance liquid chromatography/mass spectrometer system) under the following conditions. LC-MS/MS analysis conditions
as §1, §2, §3, §4, §5, §6

T1 sequence (P02550 whole entry): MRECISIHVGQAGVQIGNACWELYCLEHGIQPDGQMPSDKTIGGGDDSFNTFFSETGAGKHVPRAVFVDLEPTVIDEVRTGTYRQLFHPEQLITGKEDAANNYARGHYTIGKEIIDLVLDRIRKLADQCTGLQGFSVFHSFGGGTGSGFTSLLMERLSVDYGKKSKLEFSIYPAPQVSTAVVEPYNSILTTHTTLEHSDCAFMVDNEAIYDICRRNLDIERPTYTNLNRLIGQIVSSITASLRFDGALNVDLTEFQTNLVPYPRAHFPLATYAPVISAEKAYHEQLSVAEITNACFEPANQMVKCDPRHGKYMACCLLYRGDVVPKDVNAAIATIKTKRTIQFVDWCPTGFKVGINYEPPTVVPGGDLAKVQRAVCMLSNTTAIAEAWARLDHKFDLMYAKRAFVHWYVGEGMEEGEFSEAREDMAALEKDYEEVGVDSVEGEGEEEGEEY
T1 sequence (P02554 whole entry): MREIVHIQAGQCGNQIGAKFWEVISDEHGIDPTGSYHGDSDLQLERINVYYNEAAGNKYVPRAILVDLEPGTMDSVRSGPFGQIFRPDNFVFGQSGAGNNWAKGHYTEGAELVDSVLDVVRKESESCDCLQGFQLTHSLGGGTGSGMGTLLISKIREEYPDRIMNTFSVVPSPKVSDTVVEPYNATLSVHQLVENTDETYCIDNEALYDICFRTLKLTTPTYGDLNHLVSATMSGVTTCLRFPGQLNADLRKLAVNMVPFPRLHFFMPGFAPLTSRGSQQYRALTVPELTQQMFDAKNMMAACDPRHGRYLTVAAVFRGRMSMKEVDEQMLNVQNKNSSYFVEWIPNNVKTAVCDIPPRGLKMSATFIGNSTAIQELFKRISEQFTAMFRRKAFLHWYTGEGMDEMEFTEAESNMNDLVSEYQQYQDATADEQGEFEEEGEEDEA

| Structure (SMILES) | IC50 [1] [µM] | Release rate (%) of drug from ADC [2] [%] | Release rate (%) of drug from ADC [3] [%] |
| --- | --- | --- | --- |
| CC[C@H](C)[C@@H]([C@@H](CC(=O)N1CCC[C@H]1[C@H](OC)[C@@H](C)C(=O)N[C@H](C)[C@@H](OC(=O)NCCOCCOCCOCCOCCOCCOCCOCCOCCOCCOCCOCCOC)c1ccccc1)OC)N(C)C(=O)[C@@H](NC(=O)[C@@H](NC)C(C)C)C(C)C [Example U-015] | ≤ 3 |  |  |
| CC[C@H](C)[C@@H]([C@@H](CC(=O)N1CCC[C@H]1[C@H](OC)[C@@H](C)C(=O)N[C@H](C)[C@@H](OP(=O)(O)O)c1ccccc1)OC)N(C)C(=O)[C@@H](NC(=O)[C@H](C(C)C)N(C)C)C(C)C [Example U-031] | ≤ 3 |  |  |
| CC[C@H](C)[C@@H]([C@@H](CC(=O)N1CCC[C@H]1[C@H](OC)[C@@H](C)C(=O)N[C@H](C)[C@@H](O)c1ccccc1)OC)N(C)C(=O)[C@@H](NC(=O)[C@H](C(C)C)N(C)C(=O)CNC(=O)CN)C(C)C [Example U-009] (H-GG[NMeV]V[Dil][Dolaproine]-X1) | ≤ 3 |  |  |
| CC[C@H](C)[C@@H]([C@@H](CC(=O)N1CCC[C@H]1[C@H](OC)[C@@H](C)C(=O)N[C@H](C)[C@@H](O)c1ccccc1)OC)N(C)C(=O)[C@@H](NC(=O)[C@H](C(C)C)N(C)CCONC)C(C)C [Example U-013] | ≤ 3 |  |  |
| CC[C@H](C)[C@@H]([C@@H](CC(=O)N1CCC[C@H]1[C@H](OC)[C@@H](C)C(=O)N[C@H](C)[C@@H](O)c1ccccc1)OC)N(C)C(=O)[C@@H](NC(=O)[C@H](C(C)C)N(C)C(=O)OCc1ccc(NC(=O)[C@H](CCCNC(N)=O)NC(=O)[C@@H](NC(=O)[C@H](CC(=O)N[C@H]2CCOC2=O)NC(=O)CCOCCOCCOCCOCCNC(=O)[C@H](CNC(=O)[C@@H]2CCC(=O)O2)N2C(=O)C=CC2=O)C(C)C)cc1)C(C)C [Example 7] (X2-[βAla(2S-maleimido)][PEG4]D(hSer(lactone))V[Cit][PABC][NMeV]V[Dil][Dolaproine]-X1) |  | 86 | 65 |
| CC[C@@]1(OC(=O)OCc2ccc(NC(=O)[C@H](CCCNC(N)=O)NC(=O)[C@@H](NC(=O)[C@H](CC(=O)N[C@H]3CCOC3=O)NC(=O)CCOCCOCCOCCOCCNC(=O)[C@H](CNC(=O)CCP(=O)(O)O)N3C(=O)C=CC3=O)C(C)C)cc2)C(=O)OCc2c1cc1n(c2=O)Cc2c-1nc1cc(F)c(C)c3c1c2[C@@H](NC(C)=O)CC3 [Example 10] |  | 61 | 28 |
| CC[C@H](C)[C@@H]([C@@H](CC(=O)N1CCC[C@H]1[C@H](OC)[C@@H](C)C(=O)N[C@H](C)[C@@H](OC(=O)NCc1cn(C2OC(C(=O)O)C(O)C(O)C2O)nn1)c1ccccc1)OC)N(C)C(=O)[C@@H](NC(=O)[C@@H](NC)C(C)C)C(C)C (some centres unmarked) [Example U-019] (H-[NMeV]V[Dil][Dolaproine][X5]-X6) | ≤ 3 |  |  |
| CC[C@H](C)[C@@H]([C@@H](CC(=O)N1CCC[C@H]1[C@H](OC)[C@@H](C)C(=O)N[C@H](C)[C@@H](O)c1ccccc1)OC)N(C)C(=O)[C@@H](NC(=O)[C@H](C(C)C)N(C)CCc1ccc(N)cc1F)C(C)C [Example U-016] | ≤ 3 |  |  |
| CCN(CC(=O)N[C@H]1CCc2c(C)c(F)cc3nc4c(c1c23)Cn1c-4cc2c(c1=O)COC(=O)[C@]2(O)CC)C(=O)OCc1ccc(NC(=O)[C@H](CCCNC(N)=O)NC(=O)[C@@H](NC(=O)[C@H](CC(=O)N[C@H]2CCOC2=O)NC(=O)CCOCCOCCOCCOCCNC(=O)[C@H](CNC(=O)CCP(=O)(O)O)N2C(=O)C=CC2=O)C(C)C)cc1 [Example 9] |  | 98 | 40 |
| CC[C@@]1(O)C(=O)OCc2c1cc1n(c2=O)Cc2c-1nc1cc(F)c(C)c3c1c2[C@@H](NC(=O)COP(=O)(O)OCc1ccc(NC(=O)[C@H](CCCNC(N)=O)NC(=O)[C@@H](NC(=O)[C@H](CC(=O)N[C@H]2CCOC2=O)NC(=O)CCOCCOCCOCCOCCNC(=O)[C@H](CNC(=O)CCP(=O)(O)O)N2C(=O)C=CC2=O)C(C)C)cc1)CC3 [Example 12] |  | 3.5 | 106 |
